Data from publication doi:10.1101/2023.07.10.548257 (bioRxiv, 2024).
Blank lines part the entries; values can stand above or below the compound they belong to.

Legend:
[1] = target: MLH1 pTyr 293 L292P peptide THPFP-pY-LSLEI; assay: peptide display screen (pTyr-Var Library); conditions: N = 2 independent library transformations and screens; parent: est. 2.9; read off a plot
SHP2 N-SH2^T42A domain = target: T1, SHP2 N-SH2^T42A domain (Homo sapiens, UniProt Q06124, T42A); assay: Direct fluorescence polarization binding, N-SH2 T42A; conditions: direct fluorescence polarization with fluorescent peptide
T1 construct: SHP2 SH2 domains were cloned into a His6-SUMO-SH2-Avi construct; His6-SUMO (N, cleaved yes); made in house; host or cells: E. coli C43(DE3), co-expressed with BirA
T1 sequence (Q06124 6-102 T42A limits assumed): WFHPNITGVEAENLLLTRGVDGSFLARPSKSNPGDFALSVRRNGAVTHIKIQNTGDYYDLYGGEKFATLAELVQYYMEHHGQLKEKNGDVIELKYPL
Procedure: Fluorescence polarization binding assays
SH2 domains were thawed in room temperature water and their absorbance at 280 nm was measured to determine concentration. SH2 domains were serially diluted 15 times in assay buffer (60 mM HEPES pH 7.2, 75 mM KCl, 75 mM NaCl,1 mM EDTA, 0.05% Tween-20), with a 2x starting concentrations generally in the low micromolar range. […] The […]
fluorescent peptide was diluted to 2x the desired concentration and mixed in 1:1 ratio with the different concentrations of SH2 domain (specific fluorescent peptide concentrations can be found in Table S2).
The mixture was transferred to a black 96-well plate and incubated for 15 minutes at room temperature. Parallel and perpendicular measurements were taken using the 485/30 polarization cube on the BioTek Neo2 Plate Reader. Data was analyzed and fitted to a quadratic binding equation to determine the KD for the fluorescent peptide, according to previously established methods (2, 3). […]
P-values comparing affinities for different SH2 domains were calculated using an unpaired Welch’s t-test. […]
Right before starting the plate reader assay, 30 μL SHP2 was added to each well a Supplementary Information - page 4 of 18

[2] = target: SHP2 N-SH2 domain, wild type (N-SH2-Avi-biotin) (UniProt Q06124); assay: peptide display screen (pTyr-Var Library); conditions: N = 2 independent library transformations and screens, read off a plot
[3] = target: ALDH2 pTyr 502 E504K peptide FGLQA-pY-TKVKT; assay: peptide display screen (pTyr-Var Library); conditions: N = 2 independent library transformations and screens; parent: est. 1.3; read off a plot
[4] = target: MERTK pTyr 872 I871V peptide QADVV-pY-VNTQL; assay: peptide display screen (pTyr-Var Library); conditions: N = 2 independent library transformations and screens; parent: est. 1.0; read off a plot

enrichment (fselected / finput) ([2]; parent: est. 2.9): 1.4
Compound: MLH1 pTyr 293 peptide THPFL-pY-LSLEI L292P

enrichment (fselected / finput) [3]: 1.8
Compound: Sm1; ALDH2 pTyr 502 peptide FGLQA-pY-TEVKT N-SH2: T42A; ALDH2 peptide: E504K

enrichment (fselected / finput) ([2]; parent: est. 1.0): 1
Compound: MERTK pTyr 872 peptide QADVI-pY-VNTQL I871V

enrichment (fselected / finput) ([2]; parent: est. 1.3): 1.3
Compound: ALDH2 pTyr 502 peptide FGLQA-pY-TEVKT E504K

The next lines start with the compound.

Compound: Sm1; MLH1 pTyr 293 peptide THPFL-pY-LSLEI N-SH2: T42A; MLH1 peptide: L292P
enrichment (fselected / finput) [1]: 8.6

Compound: CC[C@H](C)[C@H](NC(=O)[C@H](Cc1ccc(OP(=O)(O)O)cc1)NC(=O)[C@H](CC(N)=O)NC(=O)[C@H](CC(C)C)NC(=O)CNC(=O)[C@H](CC(N)=O)NC(=O)[C@H](CCC(=O)O)NC(=O)CCCCCNC(=S)Nc1ccc2c(c1)C(=O)OC21c2ccc(O)cc2Oc2cc(O)ccc21)C(=O)N[C@@H](CC(=O)O)C(=O)N[C@@H](CC(C)C)C(=O)N[C@@H](CC(=O)O)C(=O)N[C@@H](CC(C)C)C(N)=O
tighter binding of N-SH2^T42A compared to N-SH2^WT (SHP2 N-SH2^T42A domain): 5 fold

Compound: Sm1; MERTK pTyr 872 peptide QADVI-pY-VNTQL N-SH2: T42A; MERTK peptide: I871V
enrichment (fselected / finput) [4]: 3.8
